Assay results: paper doi:10.1101/801027

Target: T1, Hfq (Pseudomonas putida KT2440, UniProt Q88DD3 1-86)
T1 sequence: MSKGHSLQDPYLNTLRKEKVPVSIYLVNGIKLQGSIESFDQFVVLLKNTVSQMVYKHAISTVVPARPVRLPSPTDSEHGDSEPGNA
Assay: EMSA

B1: MicC scaffold (structured_RNA)
RNA: UUUCUGUUGGGCCAUUGCAUUGCCACUGAUUUUCCAACAUAUAAAAAGACAAGCCCGAACAGUCGUCCGGGCUUUUUUU
  binding result: binds
